# Test results reported in article PMC11855334, “Exploring the Potential of Glutathione Reductase Overexpression to Improve Tellurium Nanoparticle Production in Escherichia coli” (International Journal of Molecular Sciences, 2025).
# B1: glutathione reductase from Enterobacter cloacae strain MF01 (enzyme)
# chain: MTKHYDYIAIGGGSGGIASINRAAMYGQKCALIEAKALGGTCVNVGCVPKKVMWHAAQIREAIHMYGPDYGFDTTINHFDWEKLIASRTAYIDRIHTSYDNVLGKNNVDVIHGFARFVDAKTIEVNGETITADHILIATGGRPSHPNIPGAEYGIDSDGFFVLPALPERVAVVGAGYIAVELAGVINGLGAEAHLFVRKHAPLRSFDPLIVDTLVEVMNTEGPTLHTNAVPKAVIKNADGSLTLELEDGRSQTVDCLIWAIGREPANDNFNLAVTGVKTDEKGYIVVDKFQNTSVPGIYAVGDNTGAVELTPVAVAAGRRLSERLFNNKPDEHLDYSNIPTVVFSHPPIGTVGLTEPQAREQYGDDQVKVYKSAFTAMYTAVTSHRQPCRMKLVCVGPEEKIVGIHGIGFGMDEILQGFAVALKMGATKKDFDNTVAIHPTAAEEFVTMR
# B2: glutathione reductase from Psychrobacter immobilis strain BNF08 (enzyme)
# chain: MTKHYDYIAIGGGSGGIASINRAASYGKKCAVIEANQLGGTCVNLGCVPKKVMWYGAQIAEAIHKYAPDYGFNVDVKGFDFQKLVQSRQQYIENIHRSYDNNLAKNGVEVIKGFAKFVDTNTVEVNGELITADHILIATGGHPIQPDIKGAEYGIDSDGFFALNHLPKRVAIVGAGYIAVEIAGVLNSLGAEVHLYVRQHSPLRSFDHSVVEALLIEMEQDGIQLHTNTTLTEVNKNEDGSLTLCTENGSLDTTDCLIWAIGRAPSTDNINLQVTGVETNEIGKIKVDKFQNTNVKNIYAVGDIIENSVDLTPVAIAAGRRLSERLFNNKPNEHLDYTLIPTVIFTHPAIGTIGLSEIDAVERYGKENIKCYKSTFTSMYSAVTQHRQKCMMKLVCLGDEEKVIGLHGLGFGVDEMIQGFAVAIKMGATKADFDNTVAIHPTGSEEFVTMR
# B3: glutathione reductase from E. coli (enzyme, UniProt P06715 1-450, looked up)
# chain: MTKHYDYIAIGGGSGGIASINRAAMYGQKCALIEAKELGGTCVNVGCVPKKVMWHAAQIREAIHMYGPDYGFDTTINKFNWETLIASRTAYIDRIHTSYENVLGKNNVDVIKGFARFVDAKTLEVNGETITADHILIATGGRPSHPDIPGVEYGIDSDGFFALPALPERVAVVGAGYIAVELAGVINGLGAKTHLFVRKHAPLRSFDPMISETLVEVMNAEGPQLHTNAIPKAVVKNTDGSLTLELEDGRSETVDCLIWAIGREPANDNINLEAAGVKTNEKGYIVVDKYQNTNIEGIYAVGDNTGAVELTPVAVAAGRRLSERLFNNKPDEHLDYSNIPTVVFSHPPIGTVGLTEPQAREQYGDDQVKVYKSSFTAMYTAVTTHRQPCRMKLVCVGSEEKIVGIHGIGFGMDEMLQGFAVALKMGATKKDFDNTVAIHPTAAEEFVTMR
# notes: glutathione reductase (GR) of Escherichia coli; cloned in earlier work of the same laboratory; also called E. coli GR; GR; source: E. coli C41 (DE3), purified (HisTrap HP)
# Columns and labels:
# [1] = target: glutathione reductase from Pseudomonas lini strain BNF22 (Pseudomonas lini (strain BNF22)); experiment: SEC; Superdex 200; 20 mM sodium phosphate pH 7.4, 200 mM NaCl, 1 mM β-mercaptoethanol; elution times compared to a gel filtration protein standard; homodimer
# [2] = target: the molecule itself; experiment: as above
Molecule,stoichiometry N [1],stoichiometry N [2]
glutathione reductase from Pseudomonas lini strain BNF22 (enzyme),2,
B1,,2
B2,,2
B3,,2
